Measured values from US20190062414A1 (PHILOGEN S P A, published 2019).
Blank lines part the entries; values can stand above or below the binder they belong to.

Columns and labels:
[1] = target: murine MMP3 (murine, UniProt P28862 100-272); test: Biacore (SPR), scFv; set-up not described
[2] = target: human MMP3 (human, UniProt P08254 100-272); test: Biacore (SPR), scFv; set-up not described
[3] = target: T1, BCD domains of murine tenascin-C (murine, UniProt Q80YX1 1349-1620, limits assumed); test: Biacore (SPR), scFv on BCD domains of murine tenascin-C
T1 construct: domain: BCD domains; Coated on a CM5 chip; also called domain BCD of murine Tenascin-C
T1 sequence (looked up): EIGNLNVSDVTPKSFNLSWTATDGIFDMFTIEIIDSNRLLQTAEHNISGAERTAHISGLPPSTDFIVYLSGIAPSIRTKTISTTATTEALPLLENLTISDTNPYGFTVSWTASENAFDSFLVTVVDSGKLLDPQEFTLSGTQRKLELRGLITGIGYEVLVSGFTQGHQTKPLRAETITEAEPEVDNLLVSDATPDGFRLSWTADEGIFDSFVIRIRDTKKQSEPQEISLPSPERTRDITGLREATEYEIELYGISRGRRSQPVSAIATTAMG

[4] = target: T2, D domain of human Tenascin-C (human, UniProt P24821 1622-1711, limits assumed); test: Biacore (SPR), scFv over CM5 chip coated with human tenascin-C D domain
T2 construct: domain: D domain; Coated on a CM5 chip; also called domain D of human Tenascin-C; human tenascin-C D domain
T2 sequence (looked up): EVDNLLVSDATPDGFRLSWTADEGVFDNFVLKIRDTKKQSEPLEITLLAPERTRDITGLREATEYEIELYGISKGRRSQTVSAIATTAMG
Method: CPR01 was analysed for antigen binding by Biacore using a CM5 chip coated with the human tenascin-C D domain. The flow rate for the Biacore analysis was set at 10 μL/min.

human MMP3, sequence (P08254 100-272): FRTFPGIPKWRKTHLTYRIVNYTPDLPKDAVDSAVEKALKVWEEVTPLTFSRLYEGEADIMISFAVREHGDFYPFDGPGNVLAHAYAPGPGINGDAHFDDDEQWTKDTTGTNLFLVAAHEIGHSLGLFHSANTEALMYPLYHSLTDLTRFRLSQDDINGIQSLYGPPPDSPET
murine MMP3, sequence (P28862 100-272): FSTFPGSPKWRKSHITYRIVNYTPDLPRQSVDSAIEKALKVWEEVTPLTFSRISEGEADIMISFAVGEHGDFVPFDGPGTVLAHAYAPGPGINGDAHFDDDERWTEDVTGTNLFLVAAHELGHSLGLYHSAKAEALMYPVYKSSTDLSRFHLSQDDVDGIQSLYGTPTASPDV

Kd [1]: 29 nM
koff [1]: 0.0025 s⁻¹
kon [1]: 80000 M⁻¹ s⁻¹
Kd [2]: 28 nM
koff [2]: 0.0047 s⁻¹
kon [2]: 170000 M⁻¹ s⁻¹
B1: scFv(CH01) (scFv)
scFv: EVQLLESGGGLVQPGGSLRLSCAASGFTFSPYAMSWVRQAPGKGLEWVSAITGQGGVTYYADSVKGRFTISRDNSKNTLYLQMNSLRAEDTAVYYCAKISSFHFDYWGQGTLVTVSSGGGGSGGGGSGGGGEIVLTQSPGTLSLSPGERATLSCRASQSVSSHHLAWYQQKPGQAPRLLIYDASSRATGIPDRFSGSGSGTDFTLTISRLEPEDFAVYYCQQPRGAPTTFGQGTKVEIK
notes: First disclosed in PCT/EP2015/067309; also called anti-MMP3 antibody CH01

Kd [3]: 29 nM
koff [3]: 0.007 s⁻¹
kon [3]: 240000 M⁻¹ s⁻¹
Kd [4]: 70 nM
koff [4]: 0.011 s⁻¹
kon [4]: 151000 M⁻¹ s⁻¹
B2: scFv(CPR01) (scFv)
scFv: EVQLLESGGGLVQPGGSLRLSCAASGFTFSSYAMSWVRQAPGKGLEWVSAIKARGGLTYYADSVKGRFTISRDNSKNTLYLQMNSLRAEDTAVYYCAKGGAPFDYWGQGTLVTVSSGGGGSGGGGSGGGGSSELTQDPAVSVALGQTVRITCQGDSLRSYYASWYQQKPGQAPVLVIYGKNNRPSGIPDRFSGSSSGNTASLTITGAQAEDEADYYCNSSPLNRLAVVFGGGTKLTVLG
notes: Expressed in CHO.S cells as scFv
